# Reference: patent US12391762B2, “Methods and compositions relating to GLP1R variants” (Twist Bioscience Corporation, priority 2020, dated 2025)
# Numbering of substitutions follows the chain as printed.
# B1: GLP1R-3: antagonist GLP-1R IgG with GLP-1 motif in CDRH3 (SEQ ID NO 20) (antibody)
# heavy: QVQLVESGGGVVQPGRSLRLSCAASGFTFSSYGMHWVRQAPGKGLEWVSFISYDESNKYYADSVKGRFTISRDNSKNTLYLQMNSLRAEDTAVYYCAKHMSMQEGAVTGEGQAAKEFIAWLVKGRVRADLVGDAFDVWGQGTLVTVSSASTKGPSVFPLAPCSRSTSESTAALGCLVKDYFPEPVTVSWNSGALTSGVHTFPAVLQSSGLYSLSSVVTVPSSNFGTQTYTCNVDHKPSNTKVDKTVERKCCVECPPCPAPPVAGPSVFLFPPKPKDTLMISRTPEVTCVVVDVSHEDPEVQFNWYVDGVEVHNAKTKPREEQFNSTFRVVSVLTVVHQDWLNGKEYKCKVSNKGLPAPIEKTISKTKGQPREPQVYTLPPSREEMTKNQVSLTCLVKGFYPSDIAVEWESNGQPENNYKTTPPMLDSDGSFFLYSKLTVDKSRWQQGNVFSCSVMHEALHNHYTQKSLSLSPGK
# light: QSVLTQPPSVSAAPGQKVTISCSGSSSNIADNYVSWYQQLPGTAPKLLIYDNNKRPSGIPDRFSGSKSGTSATLGITGLQTGDEADYYCGTWDNYLGAGVFGGGTKLTVLGQPKAAPSVTLFPPSSEELQANKATLVCLISDFYPGAVTVAWKADSSPVKAGVETTTPSKQSNNKYAASSYLSLTPEQWKSHRSYSCQVTHEGSTVEKTVAPTECS
# B2: GLP1R222-012: GLP1R-222 variant, optimized from GLP1R-3 (antibody, V domains shown)
# VH: QVQLVESGGGVVQPGRSLRLSCAASGFTFNNYGMHWVRQAPGKGLEWVAVISDEGSNKYYADSVKGRFTISRDNSKNTLYLQMNSLRAEDTAVYYCAKHMSMQEGAVTGVGQAAKEFIAWLVKGRVRADLVGDAFDVWGQGTLVTVSS
# VL: QSVLTQPPSVSAAPGQKVTISCSGSSSNIGNNDVSWYQQLPGTAPKLLIYDDDKRPSGIPDRFSGSKSGTSATLGITGLQTGDEADYYCGTWDTSLSVGEFGGGTKLTVL
# B3: GLP1R222-082: GLP1R-222 variant, optimized from GLP1R-3 (antibody, V domains shown)
# VH: B2 VH with N30S, N31A, G33S, V50L, D53Y, E54D, G55A, S56T, V110E, G111F
# VL: B2 VL with N31S, N32K, D33Y, D52N, D53N, T94I, L96P, V98A, G99W, E100V
# B4: GLP1R222-090: GLP1R-222 variant, optimized from GLP1R-3 (antibody, V domains shown)
# VH: B2 VH with T28S, N30S, N31D, M34I, V50L, D53Y, V110E, G111K
# VL: QSVLTQPPSVSAAPGQKVTISCSGSSSNIADNYVSWYQQLPGTAPKLLIYDNNKRASGIPDRFSGSKSGTSATLGITGLQTGDEADYYCATWDNRLSAGVFGGGTKLTVL
# B5: GLP1R222-052: GLP1R-222 variant, optimized from GLP1R-3 (antibody, V domains shown)
# VH: B2 VH with G33P, D53Y, E54D, G55E, V110G
# VL: B4 VL with A30G, D31K, N32R, Y33S, A90V, N94R, R95S
# Legend:
# [1] = Insulin Tolerance Test (ITT); format: in vivo, mouse; conditions: for Area Under the Curve (AUC) in ITT: vs control
# Protocol: Animals. All animal procedures were approved by Institutional Animal Care and Use Committee (IACUC) at the University of California San Francisco and were conducted in accordance with the National Institutes of Health Guide for the Care and Use of laboratory Animals. C57BL/6NHsd (Envigo RMS, LLC) male littermates at 8-10 weeks of age, weighing ˜20-28 grams, were used in all the studies described. The mice were housed in a room that was temperature (22-25 C) and light controlled (12-h: 12-h light/dark cycle starting at 7 AM. The mice were fed with chow diet with 9% fat (PicoLab mouse Diet 20 (#5058), Lab Supply, Fortworth Texas, USA) for the duration of housing at the UCSF animal care facility.
# 1. mAb administered as a single dose, 15 hours prior to GTT and 21 hours prior to ITT. 2. mAb administered as a double dose, 15 hours prior to GTT and 21 hours prior to ITT plus a second mAb dose 2 hours prior to GTT and ITT. 3. mAb as a single dose 6 hours prior to GTT and ITT. 4. mAb single dose 2 hours prior to GTT and ITT.
# Extendin 9-39 Peptide (MedChemExpress, Cat. No.: HY-P0264) were dosed at 1.0 or 0.23 mg/kg at three different administration regimen groups. 1. Extendin administered as a single dose, 21 hours prior to ITT. 2. Extendin administered as a double dose, 21 hours prior to ITT plus a second Extendin dose 2 hours prior to ITT. 3. mAb as a single dose 6 hours prior to ITT.
# An Insulin Tolerance Test (ITT) was conducted to assess two different anti-GLP1 mAbs (agonist and antagonist) effect on insulin sensitivity following acute insulin administration. 8 or 10-week old male mice were fasted for 6 hours and body weight was recorded before and after fasting. To avoid circadian variations in mouse blood glucose levels this testing was performed at fixed times. Blood samples were collected by tail nick and baseline glucose was measured prior to insulin injection. Mice were injected, i.p., with a single bolus (0.75 U/Kg body weight) of human insulin (Novolin, Novo Nordisk) and blood glucose levels were measured at 15, 30, 45, 60 and 120 minutes after insulin injection. Blood glucose levels were monitored using a OneTouch Ultra 2 glucose monitor (LifeScan, Inc.).
# GLP-1R [2] = biological target: T1, GLP-1R (Homo sapiens, UniProt P43220); assay: Ec50; parameters: The full length human GLP-1R gene (UniProt-P43220) with an N-terminal FLAG tag and C-terminal GFP tag; expressed in transfected cells
# Text: Table printed on a drawing sheet, FIG. 16A
# [3] = Rat PK study, ELISA for human IgG in plasma; format: in vivo; conditions: 10 mg/kg IV, 2-week PK study, beta phase
# Protocol: The rat PK study was done at Charles River Laboratories, One Innovation Dr, 3 Biotech, Worcester, MA 01605. 5 Male Sprague-Dawley rats per group were allowed to acclimate after receiving at test facility for a minimum of 3 days before dosing. […] Serial blood samples were collected via jugular vein cannula with ˜250 ul volume at each time point: pre-dose, 0.0833, 0.25, 0.5, 1, 2, 4, 8, 24, 48, 72, 96, 168, 240 and 336 hours post dose. Blood samples were collected into K2EDTA tubes and stored on wet ice until processed to plasma by centrifugation (3500 rpm for 10 minutes at 5° C.) within 30 minutes of collection. Plasma samples were then transferred into an appropriate tube containing DPP-4 (3.3 μL for 100 μL of plasma) and frozen on dry ice. To measure the human IgG in rat plasma samples, sheep anti-Human IgG (1 mg/mL) was used as coating reagent) (The binding site, Lot No. AU003.M), and goat anti-Human IgG, HRP (H&L) (1 mg/mL) was used as detection reagent) (Bethyl, cat #A80-319P) in an ELISA assay. Stock solutions of human IgG standards and QCs were prepared by spiking human IgG into rat plasma. […] The semi-logarithmic sigmoid calibration curve was obtained by plotting the absorbance response against concentration. Concentrations of analyte in the test samples were determined by computer interpolation from the plot of the calibration curve.
# GLP-1R [4] = biological target: T1, GLP-1R; assay: cAMP assays (agonist and antagonist mode), GLP-1R over-expressing CHO-K1 cells; format: cell-based; parameters: host or cells: CHO-K1; conditions: pre-incubation with fixed concentration of IgG (100 nM), then GLP-1 7-36 titration
# Protocol: CAMP assays. GLP-1R IgG clones were tested for their potential effects on GLP-1R signaling by performing cAMP assays obtained from Eurofins DiscoverXX. The technology involved in detecting cAMP levels is a no wash gain-of-signal competitive immunoassay based on Enzyme Fragment Complementation technology. Experiments were designed to test for either agonist or antagonist activity of the IgG clones. To test for agonist activity of the IgGs, cells were stimulated with IgG incubating for 30 min at 37° C. […] Intracellular CAMP levels were detected by following the assay kit instructions.
# Target sequence in this assay (P43220 24-463): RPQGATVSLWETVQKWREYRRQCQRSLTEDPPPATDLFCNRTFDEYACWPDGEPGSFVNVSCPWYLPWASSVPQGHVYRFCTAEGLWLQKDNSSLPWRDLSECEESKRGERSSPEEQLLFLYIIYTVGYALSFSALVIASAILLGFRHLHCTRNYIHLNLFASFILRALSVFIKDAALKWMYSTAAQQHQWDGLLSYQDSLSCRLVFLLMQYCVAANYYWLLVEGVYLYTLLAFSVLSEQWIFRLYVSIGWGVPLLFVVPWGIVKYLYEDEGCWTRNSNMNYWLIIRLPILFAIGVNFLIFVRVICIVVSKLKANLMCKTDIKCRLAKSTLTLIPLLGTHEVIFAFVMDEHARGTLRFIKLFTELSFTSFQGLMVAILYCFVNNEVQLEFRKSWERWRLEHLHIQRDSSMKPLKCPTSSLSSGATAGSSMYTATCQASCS
# GLP-1R [5] = biological target: T1, GLP-1R; assay: Beta arrestin recruitment assay, GLP-1R overexpressing CHO-K1 cells; format: cell-based; parameters: host or cells: CHO-K1; conditions: 100 nM IgG pre-incubated 1 hr
# Protocol: Beta arrestin recruitment assy. β-arrestin recruitment assay was obtained from Eurofins DiscoverXX (Cat #93-0300E2) that utilized untagged GLP-1R overexpressing CHO-K1 cells. […] Expanded cells were seeded into 96 well plates at 5,000 cells/well, and the experiment was performed 48 hours after plating cells. […] Add 22.5 uL of detection solution to each well, tap gently and briefly spin down. Then incubate plates at RT for 1 hour in the dark. The plates were then read by a Chemiluminescence plate reader, Molecular Devices SpectraMax® M5, and output relative light units (RLU) data were analyzed using GraphPad Prism™.
# Target sequence in this assay (P43220 24-463): as above
# CHO-parent cells = assay: Flow cytometry binding assay on CHO-parent cells (background binding); parameters: species or system Chinese Hamster; conditions: for Bmax CHO Parent: IgG titration
# Protocol: GLP-1R IgG clones were tested in a binding assay coupled to flow cytometry analysis as follows: FLAG-GLP-1R-GFP expressing CHO cells (CHO-GLP-1R) and CHO-parent cells were incubated with 100 nM IgG for 1 h on ice, washed three times and incubated with Alexa 647 conjugated goat-anti-human antibody (1:200) (Jackson ImmunoResearch Laboratories, 109-605-044) for 30 min on ice, followed by three washes, centrifuging to pellet the cells between each washing step. All incubations and washes were in buffer containing PBS+1% BSA. For titrations, IgG was serially diluted 1:3 starting from 100 nM down to 0.046 nM. Cells were analyzed by flow cytometry and hits (a hit is an IgG that specifically binds to CHO-GLP-1R) were identified by measuring the GFP signal against the Alexa 647 signal. Flow cytometry data of binding assays with 100 nM IgG are presented as dot plots. Analyses of binding assays with IgG titrations are presented as binding curves plotting IgG concentrations against MFI (mean fluorescence intensity).
# [6] = 19+2 hour, GLP1R-3 20 mg/kg, Exendin 1 mg/kg
# [7] = 19+2 hours dosing regimen, C57BL/6NHsd mice
# [8] = single 6 hour treatment, GLP1R-3 20 mg/kg, Exendin 1.0 and 0.23 mg/kg
Molecule,"Area Under the Curve (AUC) in ITT [1, 6]","blood glucose after insulin challenge [1, 7]","Area Under the Curve (AUC) in ITT [1, 8]","Median RL1-H of Parent Singlets (CHO-parent cells; Table 6D, GLP1R-222 variants)",Bmax CHO Parent (CHO-parent cells; Table 6F),further results
Exendin 9-39 [reference compound],significant (p<0.0001),significantly stabilizes a higher blood glucose,no significant difference,–,–,"Area Under the Curve (AUC) in ITT ([1]; 19+2 hour, Exendin 0.23 mg/kg): no significant difference"
B1,significant (p<0.0001),significantly stabilizes a higher blood glucose,significantly (p<0.05) stabilizes,302.5,–,"blood glucose after insulin challenge ([1]; single 6 hour dosing regimen, comparator antibody experiment, 20 mg/kg): significantly stabilized a higher blood glucose; blood glucose after insulin challenge ([1]; single 6 hour dosing regimen, compared to Exendin 9-39 or control): significantly stabilizes a higher blood glucose; Area Under the Curve (AUC) in ITT ([1]; single 6 hour treatment, comparator antibody experiment, 20 mg/kg): significantly (p<0.05) stabilized; EC50 (GLP-1R [2]): 3.94 nM; in vivo half-life [3]: ~1 week; antagonist activity: effect on GLP-1 7-36-induced GLP-1R cAMP signaling (GLP-1R [4]): clear dose-dependent inhibition of the CAMP signal; effect on GLP-1 7-36 induced β-arrestin recruitment (GLP-1R [5]): inhibition of GLP-1 7-36 peptide-induced beta arrestin recruitment; Median RL1-H of Parent Singlets (CHO-parent cells; Table 6C, GLP1R-221 variants): 234; Bmax CHO Parent (CHO-parent cells; Table 6E): 268"
B2,–,–,–,290.5,340.6,–
B3,–,–,–,315,305,–
B4,–,–,–,432,413.4,–
B5,–,–,–,27565.5,47529,–
